The values that follow come from article PMC6770577, “TRPM6 N-Terminal CaM- and S100A1-Binding Domains” (International Journal of Molecular Sciences, 2019).

The chains are these.
T1: S100A1 (Homo sapiens), P23297
T1 chain: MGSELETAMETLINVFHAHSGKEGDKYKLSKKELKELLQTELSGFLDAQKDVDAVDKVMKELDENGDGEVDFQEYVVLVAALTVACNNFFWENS

B1: TRPM6np K532A/R531A 520-535, Q9BX84 (peptide)
chain: LIGRAYRSNYTAAHFR
B2: TRPM6np K532A/R531A/R535A 520-535, Q9BX84 (peptide)
chain: LIGRAYRSNYTAAHFA
B3: TRPM6np K532A/R531A/R535A/R526A 520-535, Q9BX84 (peptide)
chain: LIGRAYASNYTAAHFA
B4: TRPM6np K532A 520-535, Q9BX84 (peptide)
chain: LIGRAYRSNYTRAHFR

The target of this assay is T1, S100A1 (Homo sapiens), P23297. The assay is described as follows: steady-state fluorescence anisotropy. To be noted: modification not given. On the technique in general: Polarisation of emitted light reports the rotation of a fluorescent probe.
By Kd is commonly meant a measure of binding affinity in units of concentration. Read a high Kd as a looser complex. In turn, B1 registered a Kd of 50.2 µM.
As for B2, the figure is 81.8 µM; as for B3, 130 µM.
Under B4 stands 24.8 µM.
